Test results published in the supplement of paper PMC10567573.
± gives the standard deviation.

Assay: protein stability index of a GFP-peptide fusion (GPS, HEK-293T) (PSI 1-6); higher = more stable
[1] = treatment: DMSO, c terminus: a fixed tail appended
[2] = treatment: MLN4924 1 uM, 8 h, c terminus: a fixed tail appended
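Also: 24-mer peptide tiles fused after GFP, lentivirally expressed, FACS-sorted into six equal bins by GFP/DsRed ratio, decoded by Illumina sequencing, PSI is the read-weighted mean bin number.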

| Sequence | protein stability index [1] | protein stability index [2] | protein stability index (treatment: DMSO, c terminus: native) | protein stability index (treatment: MLN4924 1 uM, 8 h, c terminus: native) |
| --- | --- | --- | --- | --- |
| LSSRWKNWWIRGILTLTMISLFFL [CDS1] | 2.54 ± 0.37 | 2.17 ± 0.36 |  |  |
| GNRINVPMVRKRSVSNSTQTSSSS [DLC1] | 4.44 ± 0.13 | 4.65 ± 0.2 |  |  |
| CSCLSDILRFIYSGAFQWEELEED [RHOBTB3] | 2.35 ± 0.41 | 1.88 ± 0.34 |  |  |
| QPKPLLLPAAPKTQTISSIPPQT [ATF6] |  |  | 4.73 ± 0.23 | 4.65 ± 0.34 |
| MDTAMEVVKFVNFLLVNGFQTAID [TRAF3IP2] | 2.73 ± 1.1 | 2.79 ± 0.086 |  |  |
| ILINNGSRIKGWWVFHHYVSTFLS [TMEM120A] | 2.17 ± 0.64 | 2.38 ± 0.42 |  |  |
| KESRAQTLQNGRRHIHHLGNQLQL [BRF1] | 3.55 ± 0.15 | 3.63 ± 0.31 |  |  |
| QKKQKLEQKAAGSASAKRVWNMTA [FATE1] | 4.01 ± 0.15 | 3.93 ± 0.37 |  |  |
| DPYLSYRWKRRRSYSREHEGRLRY [CLK3] | 3.54 ± 0.33 | 3.57 ± 0.56 |  |  |
| EGVSLTAVLTTHHHWDHARGNPEL [HAGHL] | 2.72 ± 0.27 | 2.87 ± 0.42 |  |  |
| VDCACLKENPECPVLKRSSESMEN [KMT2E] | 4.96 ± 0.37 | 4.98 ± 0.19 |  |  |
| EYDYLFKVVLIGDSGVGKSNLLSR [RAB11A] | 2.6 ± 0.65 | 2.39 ± 0.7 |  |  |
| FCQMLAVVETINAAIGVTTSPVLP [HACD3] | 2.69 ± 0.4 | 2.54 ± 0.23 |  |  |
| TESSNTTIEDEDVKARKQEIIKVT [CAMK2D] | 5.21 ± 0.29 | 5.07 ± 0.25 |  |  |
| LNLNYNCISDELLENLCENASTLR [FBXO39] | 3.28 ± 0.16 | 3.29 ± 0.21 |  |  |
| QMPQEEVELLPPAPKGKGRKPAAG [BRD3] | 4.98 ± 0.39 | 5.1 ± 0.18 |  |  |
| PLNPKPHKKKSPGEKPHRCPQCGK [ZNF449] | 4.24 ± 0.12 | 4.49 ± 0.35 |  |  |
| ADGLLQLGPLGSTAFLPDSKCLVD [GALNT9] | 3.97 ± 0.16 | 4.09 ± 0.19 |  |  |
| EDTQTDADSSAQAAAQAPENFQEG [TAF7L] | 5.47 ± 0.52 | 5.57 ± 0.42 |  |  |
| YHRRHNPKTNEDFEFLYNALEFWR [IQUB] | 1.86 ± 0.36 | 2.61 ± 0.82 |  |  |
| MNAVGSPEGQELQKLGSGAWDNPA [PKD2L1] | 4.59 ± 0.2 | 4.35 ± 0.27 |  |  |
| CRANRNCPIDQHHRNQCQYCRLKK [NR2F2] | 4.2 ± 0.044 | 4.39 ± 0.14 |  |  |
| SPPTRPVPGHRSERAIRTQPKQLI [SPRY1] | 4.04 ± 0.37 | 4.05 ± 0.18 |  |  |

| Sequence | protein stability index [1] | protein stability index [2] | protein stability index (treatment: DMSO, c terminus: native) | protein stability index (treatment: MLN4924 1 uM, 8 h, c terminus: native) |
| --- | --- | --- | --- | --- |
| NVAASNAKLALFYDWLFFSPDKDS [INTS3] | 2.39 ± 0.46 | 2.55 ± 0.55 |  |  |
| NATLTQYQLLATHVPTVWAIDQYR [RHOBTB2] | 2.61 ± 0.58 | 2.48 ± 0.31 |  |  |
| DRLWRPSKVLSLQDLCCRAVVSCT [RAB40B] | 3.01 ± 0.17 | 2.8 ± 0.21 |  |  |
| YVERKNSLKKGSLVKNLKDTLGLG [NCK2] | 2.85 ± 0.34 | 3.13 ± 0.28 |  |  |
| FSRENLSKDLYLISQMDSDQFIPI [LARP4] | 2.17 ± 0.45 | 2.13 ± 0.36 |  |  |
| RNVLELNDVRQSANYTCVAMSTLG [PTPRD] | 2.85 ± 0.28 | 2.74 ± 0.17 |  |  |
| EGDPGSKQPRKKRGRYRQYNSEIL [LCOR] | 4.64 ± 0.22 | 4.55 ± 0.28 |  |  |
| SVGDPCGGAICGGPDHRLRLWRLF [SLC25A25] | 2.35 ± 0.59 | 2.62 ± 0.21 |  |  |
| DDDKGDSKETRLTLMEEVLLLGLK [GOLPH3] | 3.16 ± 0.36 | 3.65 ± 0.32 |  |  |
| LKASEPGLFAVGEHTGEVRTARAL [PCDHGA10] | 4.06 ± 0.35 | 4.21 ± 0.16 |  |  |
| NVCDDYDVTCNEFFFDRNPGAFGT [KCNG1] | 3.44 ± 0.25 | 3.65 ± 0.12 |  |  |
| FIFTFVKKKKIGFYFEVCGMMVES [PCDHGA10] | 3.34 ± 0.57 |  |  |  |
| MRHVEKMCKADLSRNFIERNHMEN [TRIM29] | 3.05 ± 0.16 | 3.1 ± 0.12 |  |  |
| QKASLLIQQALTMFPGVLLPLLES [TCF25] | 3.23 ± 0.48 | 3.51 ± 0.29 |  |  |
| GENSDCHRDSSQAIPITELTKSQV [ZNF8] | 4.94 ± 0.12 | 5.29 ± 0.23 |  |  |
| YALRAYLGYQAVPSGSSGSLSTSS [CEBPB] | 2.23 ± 0.28 | 2.36 ± 0.3 |  |  |
| GTENGAIDAVPVDENLFTGEDLDE [ZC3H15] | 5.7 ± 0.3 | 5.52 ± 0.44 |  |  |
| REPAGRWKEGRPRVEESGSKKEGK [PBXIP1] | 5.34 ± 0.21 | 5.36 ± 0.21 |  |  |
| VGLGTCSMFSRVGGIIAPFIPSLK [SLC22A15] | 2.1 ± 0.36 | 2.33 ± 0.45 |  |  |
| EKDRIKSFTTNEKAILEQNFRDLV [TRIM29] | 3.53 ± 0.27 | 3.82 ± 0.43 |  |  |
| LLLILCMQHSFPEPGRLYLDLILA [TMEM192] | 3.3 ± 0.48 | 3.11 ± 0.32 |  |  |
| GALETRSLKDHKVSFLRSGTKLIF [C2CD2L] | 2.13 ± 0.24 | 2.1 ± 0.42 |  |  |
| LKNSNYESIQQTARSIAEQAHELA [PPTC7] | 3.91 ± 0.54 | 3.78 ± 0.26 |  |  |

| Sequence | protein stability index [1] | protein stability index [2] | protein stability index (treatment: DMSO, c terminus: native) | protein stability index (treatment: MLN4924 1 uM, 8 h, c terminus: native) |
| --- | --- | --- | --- | --- |
| NTKRAIHTLAVMNDRLYAIGGNHL [KLHL14] | 2.2 ± 0.19 | 2.3 ± 0.14 |  |  |
| CVHPRGGVIQSVSSWKHGSGTQYV [C18orf25] | 2.58 ± 0.42 | 2.32 ± 0.39 |  |  |
| SVVTTARMQVLKRQVQSLMVHQRK [SMARCE1] | 2.79 ± 0.14 | 2.94 ± 0.27 |  |  |
| LLQIIDTTLLKCYLHTNVALVAPL [VPS39] | 3.13 ± 0.49 | 3.38 ± 0.21 |  |  |
| DVVKTQRQVALGAMEAVRVNPLHV [SLC25A39] | 3.05 ± 0.22 | 3.23 ± 0.13 |  |  |
| ASKTVFFFFSSPGNNNGTSIEDGQ [BTBD1] | 2.55 ± 1.3 | 2.29 ± 0.74 |  |  |
| KAMAKLSKLASNGTPMGTFAPLWE [FCHO1] | 2.23 ± 0.41 | 2.48 ± 0.12 |  |  |
| RSLEELTRLAFELFAEEQAEGPNR [LPCAT4] | 3.32 ± 0.52 | 3.53 ± 0.18 |  |  |
| IPTVKPLKPRPEPPKKPSNWRRKH [ZC2HC1A] | 4.2 ± 0.24 | 4.24 ± 0.11 |  |  |
| FRRAPSWRKRFRPREHHGRGGMLS [PPFIA4] | 3.11 ± 0.27 | 3.99 ± 0.078 |  |  |
| LQGDLKTLMGKLKLKNTVTIQQEK [SASS6] |  | 2.81 ± 0.25 |  |  |
| LPSLRTVSSSVIEQLFFVRLVGKT [NR2F2] | 2.44 ± 0.37 | 2.28 ± 0.071 |  |  |
| VLCGVVMDRSLVQDAPLSDCTETI [ADD1] | 3.11 ± 0.27 | 2.99 ± 0.41 |  |  |
| ELQLSDLLKQGYNKTLLRLRLRKE [PKD2L1] | 2.39 ± 0.26 | 2.76 ± 0.24 |  |  |
| RLKFPIDYPYSPPAFRFLTKMWHP [CDC34] | 2.49 ± 0.48 | 2.09 ± 0.15 |  |  |
| QIRTVIQYQTVRYDILPLSPVSRN [CTDNEP1] | 2.36 ± 0.2 | 2.26 ± 0.13 |  |  |
| SVVTEDGPEPKDKGSLPQPPITEV [ZNF232] | 5.5 ± 0.2 | 5.48 ± 0.18 |  |  |
| LNSPPGPHSAKTEEHTTILRPSYT [CDC14A] | 4.41 ± 0.61 | 4.651 ± 0.039 |  |  |
| PVIAAPSMWTRPQIKDFKEKIQQD [ACBD3] | 4.59 ± 0.32 | 4.41 ± 0.4 |  |  |
| TDNQVRLRKRKEIREDRDRARLDS [DLC1] | 5.18 ± 0.39 | 5.07 ± 0.3 |  |  |
| MAQSRDGGNPFAEPSELDNPFQDP [SCAMP3] | 5.19 ± 0.17 | 5.19 ± 0.23 |  |  |
| GIREASSGGGGSSSNFHINVEESV [KRT15] | 4.92 ± 0.18 | 5.11 ± 0.28 |  |  |
| FVEEIKKLATQHKQLISQTKKKQW [ZMYND11] | 2.73 ± 0.77 | 2.13 ± 0.33 |  |  |

| Sequence | protein stability index [1] | protein stability index [2] | protein stability index (treatment: DMSO, c terminus: native) | protein stability index (treatment: MLN4924 1 uM, 8 h, c terminus: native) |
| --- | --- | --- | --- | --- |
| VVLLQGAELLLAARLLGALAARSG [TSPAN10] | 3.52 ± 0.57 | 2.76 ± 0.59 |  |  |
| PRMLRESGHGDAHLQEYAGNFQGI [FATE1] | 4 ± 0.24 | 4.22 ± 0.13 |  |  |
| ICFKEMLANSWNCLPKHLLHSVNQ [KLHDC2] | 2.73 ± 0.43 | 2.63 ± 0.65 |  |  |
| EWFQNCYARYHQAFADRDQSERQR [TEKT4] | 3.41 ± 0.24 | 3.21 ± 0.21 |  |  |
| MAVTGWLESLRTAQKTALLQDGRR [DPCD] | 2.51 ± 0.14 | 2.68 ± 0.17 |  |  |
| WGYIRYSGQYRELGGAIDFGAAYV [ATL3] | 2.56 ± 0.68 | 2.53 ± 0.69 |  |  |
| DEPSKPTLALEYTYGRRAKGHNTP [DYNC2LI1] | 4.48 ± 0.23 | 4.65 ± 0.21 |  |  |
| EDSIFGDPKKLLTQYFVQENYLEY [MAGEA6] | 2.88 ± 0.34 | 2.62 ± 0.11 |  |  |
| TSSVSCALDEAAAALTRMRAESTA [ANKRD17] | 3.06 ± 0.42 | 3.05 ± 0.32 |  |  |
| CSHNLCQACARNILVQTPESESPQ [TRIM9] | 3.57 ± 0.33 | 3.85 ± 0.33 |  |  |
| TWAPKNKGGEERKAEGGEEDSLGC [IRX6] | 5.5 ± 0.16 | 5.42 ± 0.18 |  |  |
| GQGGKLWDPSVQSCKEGLSPRGPA [ZNF263] | 3.9 ± 0.12 | 4.08 ± 0.16 |  |  |
| LFVNSHPGIDRPGMLCSFRIPGAW [DCAF4] | 2.38 ± 0.59 | 2.24 ± 0.43 |  |  |
| QYIAQFTSQFLSLQCLQALYVDSL [PRAME] | 3.237 ± 0.011 | 3.47 ± 0.23 |  |  |
| LINSNVSMVDLTSVTLEDVTPKKS [FAN1] | 3.34 ± 0.25 | 3.55 ± 0.17 |  |  |
| DPSKLDSGKELKIDIIPNPQERTL [HSP90AB1] | 5.15 ± 0.11 | 5.31 ± 0.078 |  |  |
| GCGADSKKKRPPQPPEESQPPQSQ [PLK2] | 5.52 ± 0.35 | 5.53 ± 0.18 |  |  |
| DIRLTLMEEVLLLGLKDKEGYTSF [GOLPH3L] | 2.26 ± 0.44 | 2.2 ± 0.55 |  |  |
| IVGSQGAEGALEEVPLEVLRQRES [TBC1D10A] | 5.17 ± 0.34 | 5.31 ± 0.26 |  |  |
| GLSLTDESDSCVSFEAPLTPLIQQ [PSD2] | 4.29 ± 0.35 | 4.15 ± 0.29 |  |  |
